Reference: patent publication US11840557B2, “Wnt7 variants capable of activating g-protein coupled receptor (Gpr)124/Reck/frizzled/lipoprotein receptor-related protein (LRP)-mediated Wnt signaling” (UNIVERSITÉ LIBRE DE BRUXELLES, priority 2018, dated 2023)

Assays:
HA-Reck = target: T1, HA-Reck (Homo sapiens, UniProt O95980); experiment: Proximity ligation assay (PLA), anti-V5/anti-HA, V5-tagged Wnt ligand and HA-Reck in GPR124−/−;RECK−/− cells; assay type: cell-based; details: GPR124−/−;RECK−/− cells co-expressing HA-Reck
T1 construct: expressed in transfected cells; host or cells: GPR124-/-;RECK-/- HEK293 (STF) cells, pCS2 / CMV promoter
T1 sequence (O95980 23-942): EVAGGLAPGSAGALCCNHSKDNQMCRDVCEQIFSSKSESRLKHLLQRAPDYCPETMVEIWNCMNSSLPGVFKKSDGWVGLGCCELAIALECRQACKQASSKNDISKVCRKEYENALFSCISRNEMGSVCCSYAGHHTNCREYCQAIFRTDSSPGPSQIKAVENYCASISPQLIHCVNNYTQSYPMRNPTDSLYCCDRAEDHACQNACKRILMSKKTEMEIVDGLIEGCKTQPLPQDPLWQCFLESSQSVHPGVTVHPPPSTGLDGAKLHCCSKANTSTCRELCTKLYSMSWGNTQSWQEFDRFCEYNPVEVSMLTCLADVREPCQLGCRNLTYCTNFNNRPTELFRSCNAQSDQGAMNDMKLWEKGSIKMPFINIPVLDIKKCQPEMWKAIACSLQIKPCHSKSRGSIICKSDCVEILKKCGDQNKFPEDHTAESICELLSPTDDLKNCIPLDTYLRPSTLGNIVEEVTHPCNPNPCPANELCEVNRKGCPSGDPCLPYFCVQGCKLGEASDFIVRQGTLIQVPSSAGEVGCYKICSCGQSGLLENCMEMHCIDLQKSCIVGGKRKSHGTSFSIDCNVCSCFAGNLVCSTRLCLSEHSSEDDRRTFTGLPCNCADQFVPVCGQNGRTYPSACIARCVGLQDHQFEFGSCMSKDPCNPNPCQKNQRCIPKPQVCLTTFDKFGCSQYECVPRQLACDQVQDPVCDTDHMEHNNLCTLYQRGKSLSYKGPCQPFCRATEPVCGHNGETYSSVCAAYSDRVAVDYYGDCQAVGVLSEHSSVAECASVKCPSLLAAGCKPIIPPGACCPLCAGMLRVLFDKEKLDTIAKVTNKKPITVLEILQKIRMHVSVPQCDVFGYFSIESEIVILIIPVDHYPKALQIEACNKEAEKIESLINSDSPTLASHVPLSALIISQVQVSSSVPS
Experimental: 1.7. Immunofluorescence and Proximity Ligation Assay Cells were grown in glass-coated chambers (IBIDI, Martinsried, Germany) and transfected after 24 h with Lipofectamine 2000 (Life Technologies, Carlsbad, Calif.). Cells were fixed with 4% paraformaldehyde for 10 min at room temperature (RT) 48 h post transfection. For immunofluorescence staining (IF), cells were blocked in 1% BSA-PBS for 30 min before being exposed to primary antibodies for 1 h at RT. After three PBS washes, cells were incubated with secondary antibodies for 1 h at RT. For anti-V5 staining of Wnt ligands, cells were additionally washes for 10 min in PBS 0.1% Tween 20 before incubation with the secondary antibody solution. For the proximity ligation assay (PLA) (Sigma-Aldrich, St. Louis, Mo.), cells were blocked for 30 min at 37° C. with the Blocking solution provided by the manufacturer before being incubated with the primary antibodies for 1 h at RT. Cells were washed three times and incubated with the PLA probes anti-rabbit PLUS and anti-mouse MINUS for 1 h at 37° C. After two PBS washes, cells were incubated with the Duolink Ligation solution for 30 min at 37° C. After two PBS washes, cells were incubated with the Duolink Amplification solution for 100 min at 37° C. The following antibodies were used: mouse monoclonal anti-V5 (R96025, Life Technologies, Carlsbad, Calif.) at 1:500 for IF and PLA, purified polyclonal rabbit anti-HA (H6908, St. Louis, Mo.) at 1:400 for IF and PLA and anti-mouse Alexa488-conjugated secondary antibody (Thermo Fisher Scientific, Waltham, Mass.) at 1:5000. Cells were stained for 2 min with Hoechst diluted to 10 μg ml-1 in PBS.
Cells and zebrafish embryos were imaged with an LSM710 confocal microscope and images were processed in ImageJ. Images of eye fusion phenotypes were taken on Leica M165 FC. Representations of brain vasculature were generated using Imaris software (BitPlane, Zurich, Switzerland). The percentage of PLA positive (PLA+) areas and DAPI positive (DAPI+) areas were calculated using ImageJ on images containing about 50 to 100 cells. The PLA+ area was measured after manually applying a fixed threshold. The DAPI+ area was measured after applying the “default” thresholding method in Image J.

wnt7aa morphants = experiment: Trunk DRG rescue in wnt7aa morphant zebrafish larvae; assay type: in vivo, Danio rerio; details: 100 pg mRNA injection, 72 hpf
Experimental: Zebrafish (Danio rerio) were raised and handled under standard conditions following the rules of the State of Belgium (protocol approval number: CEBEA-IBMM-2017-22:65). The following line was used: Tg(−17.0neurog1:EGFP)^w61 (McGraw et al., J. Neurosci 28(47):12558-69 (2008)).
The following splice-blocking morpholino (MOs) (GeneTools, Eugene, OR) were injected into embryos at the one-cell stage: wnt7aa ([…], 6 ng) (SEQ ID NO.: 123). Synthetic mRNAs were transcribed from pCS2 plasmids after NotI digestion using the mMessage mMachine SP6 Kit (Ambion, Carlsbad, CA) and injected into one-cell stage zebrafish embryo. For Xenopus laevis microinjection, 15 pg of wnt7a or wnt7a^K190A or wnt7a^1-278 mRNA were injected into one ventral blastomere of the four-cell stage embryo.
zebrafish embryos were imaged with an LSM710 confocal microscope and images were processed in ImageJ. Images of zebrafish development phenotypes were taken on Leica M165 FC. Xenopus larvae were imaged with an Olympus SZX16.

[1] = tested on: Wnt7aa^−/− mutant zebrafish; experiment: Transgenic endothelial expression (kdrl promoter) in Wnt7aa−/− zebrafish: hindbrain CtAs and GLUT1 staining; assay type: in vivo, Danio rerio; details: 60 hpf embryos
Excerpt: (A) Dorsal views of the cerebral vasculatures of 60 hpf WT or Wnt7aa^−/− Tg(kdrl:EGFP) embryos. In Wnt7a^−/− mutants, the intracerebral CtAs are lacking. Wnt7, Wnt7a^K190A or Wnt7a^1-278 were transiently expressed in the endothelium of Wnt7aa^−/− embryos under the control of an endothelial-specific kdrl (Vascular endothelial growth factor receptor kdr-like) promoter. The Wnt7 ligands were expressed as a biscistronic construct with BFP (Blue Fluorescent Protein) used as transgenesis marker. In contrast to uninjected embryos, Wnt7, Wnt7a^K190A or Wnt7a^1-278 restore hindbrain CtAs formation in Wnt7aa^−/− mutants as quantified in (B). (C) Anti-GLUT1 staining of the CtAs after transgenic expression of Wnt7, Wnt7a^K190A and Wnt7a^1-278 in 60 hpf Wnt7aa^−/− embryos. Transgenic expression was achieved as in (A).
Mouse Wnt7, Wnt7a^K190A and Wnt7a^1-278 were transiently expressed in the endothelium of Wnt7aa^−/− embryos under the control of an endothelial-specific kdrl (Vascular endothelial growth factor receptor kdr-like) promoter. The Wnt7 ligands were expressed as a biscistronic construct with BFP (Blue Fluorescent Protein) as transgenesis marker.

B1: Wnt7a^1-278: the N-terminal domain of Wnt7a, single domain truncated variant (protein)
chain: LGASIICNKIPGLAPRQRAICQSRPDAIIVIGEGSQMGLDECQFQFRNGRWNCSALGERTVFGKELKVGSREAAFTYAIIAAGVAHAITAACTQGNLSDCGCDKEKQGQYHRDEGWKWGGCSADIRYGIGFAKVFVDAREIKQNARTLMNLHNNEAGRKILEENMKLECKCHGVSGSCTTKTCWTTLPQFRELGYVLKDKYNEAVHVEPVRASRNKRPTFLKIKKPLSYRKPMDTDLVYIEKSPNYC
modifications: left off: small tags and cut ends
notes: the N-terminal domain of Wnt7a, single domain truncated variant
- Reck binding (anti-V5/anti-HA PLA signal) (HA-Reck): still binds Reck
- Reck binding (anti-V5/anti-HA PLA signal) (HA-Reck; listed as Wnt7a^NTD): bound to Reck as potently as full-length Wnt7a
- DRG rescue (wnt7aa morphants): significant DRG rescues
- blood-brain barrier (GLUT1 expression) ([1]; anti-GLUT1 staining of CtAs): restored blood-brain barrier
- brain angiogenesis / hindbrain CtAs formation ([1]; transient endothelial expression): triggered GPR124/RECK-dependent brain angiogenesis
